What all share (experiment): SPR 25C; FcgR bound per captured antibody, relative to parent B3
Test [1] deals with T1, human FcγRIIaH extracellular domain, C-terminal His-tag (human, UniProt P12318 34-217).
T1 construct: also called human FcγRIIa (type H); FcgRIIaH
T1 sequence: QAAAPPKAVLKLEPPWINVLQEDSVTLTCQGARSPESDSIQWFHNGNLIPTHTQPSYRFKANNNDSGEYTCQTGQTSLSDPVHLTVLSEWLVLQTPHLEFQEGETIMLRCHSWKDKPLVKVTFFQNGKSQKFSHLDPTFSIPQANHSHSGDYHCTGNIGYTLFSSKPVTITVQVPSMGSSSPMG

The target of test [2] is T2, human FcγRIIaR extracellular domain, C-terminal His-tag (human, UniProt P12318 34-217).
T2 construct: also called human FcγRIIa (type R); FcgRIIaR
T2 chain: T1 sequence with H134R

The target of test [3] is T3, human FcγRIIb extracellular domain, C-terminal His-tag (human, UniProt P31994 43-217).
T3 construct: also called FcgRIIb (human)
T3 sequence: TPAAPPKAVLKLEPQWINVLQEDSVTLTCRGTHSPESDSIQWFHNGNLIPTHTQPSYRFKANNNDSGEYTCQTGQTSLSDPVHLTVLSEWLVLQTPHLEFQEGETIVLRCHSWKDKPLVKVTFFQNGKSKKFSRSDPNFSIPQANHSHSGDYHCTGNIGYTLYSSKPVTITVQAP

Positions count from the first letter of the chain named. In names and notes the source's numbering stands.

B1: GpH7-B3 variant I332D/GpL16-k0 (antibody, human IgG1, kappa)
heavy: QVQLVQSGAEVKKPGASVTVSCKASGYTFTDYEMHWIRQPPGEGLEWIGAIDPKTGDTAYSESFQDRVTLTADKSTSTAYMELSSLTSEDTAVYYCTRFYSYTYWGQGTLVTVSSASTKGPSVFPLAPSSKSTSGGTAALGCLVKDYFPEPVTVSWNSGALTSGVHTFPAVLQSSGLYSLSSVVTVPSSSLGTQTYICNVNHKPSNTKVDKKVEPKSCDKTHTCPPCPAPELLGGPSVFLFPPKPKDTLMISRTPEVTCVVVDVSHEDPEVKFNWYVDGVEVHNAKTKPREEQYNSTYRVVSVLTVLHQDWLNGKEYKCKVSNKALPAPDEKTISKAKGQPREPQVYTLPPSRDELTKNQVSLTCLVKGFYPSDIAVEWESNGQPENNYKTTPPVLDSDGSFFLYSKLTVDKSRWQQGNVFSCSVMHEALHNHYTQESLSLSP
light: DIVMTQSPLSLPVTPGEPASISCQASESLVHSNRNTYLHWYLQKPGQSPQLLIYKVSNRFSGVPDRFSGSGSGTDFTLKISRVEAEDVGVYYCSQNTHVPPTFGQGTKVEIERTVAAPSVFIFPPSDEQLKSGTASVVCLLNNFYPREAKVQWKVDNALQSGNSQESVTEQDSKDSTYSLSSTLTLSKADYEKHKVYACEVTHQGLSSPVTKSFNRGEC
Turning to B1, the “Binding to human FcgRs (parent B3 = 100)” value in test [1] turned out to be 129 parent B3 = 100; in test [2], 139 parent B3 = 100; in test [3] it was 198 parent B3 = 100.

B2: GpH7-B3 variant S239N/GpL16-k0 (antibody, human IgG1, kappa)
heavy: not shown
light: B1 light
As for B2, the “Binding to human FcgRs (parent B3 = 100)” value in test [1] is 99 parent B3 = 100; in test [2] it was 80 parent B3 = 100; in test [3] it was 124 parent B3 = 100.

B3: GpH7-B3 variant N325E/GpL16-k0 (antibody, human IgG1, kappa)
heavy: not shown
light: B1 light
B3: the “Binding to human FcgRs (parent B3 = 100)” value was 49 parent B3 = 100 in test [1], 13 parent B3 = 100 in test [2] and 40 parent B3 = 100 in test [3].

B4: GpH7-B3 variant P271G/GpL16-k0 (antibody, human IgG1, kappa)
heavy: not shown
light: B1 light
Consider B4, for which the entries for the “Binding to human FcgRs (parent B3 = 100)” value in test [1], in test [2] and in test [3] were 152 parent B3 = 100, 130 parent B3 = 100 and 252 parent B3 = 100, respectively.

B5: GpH7-B3 variant S267A/GpL16-k0 (antibody, human IgG1, kappa)
heavy: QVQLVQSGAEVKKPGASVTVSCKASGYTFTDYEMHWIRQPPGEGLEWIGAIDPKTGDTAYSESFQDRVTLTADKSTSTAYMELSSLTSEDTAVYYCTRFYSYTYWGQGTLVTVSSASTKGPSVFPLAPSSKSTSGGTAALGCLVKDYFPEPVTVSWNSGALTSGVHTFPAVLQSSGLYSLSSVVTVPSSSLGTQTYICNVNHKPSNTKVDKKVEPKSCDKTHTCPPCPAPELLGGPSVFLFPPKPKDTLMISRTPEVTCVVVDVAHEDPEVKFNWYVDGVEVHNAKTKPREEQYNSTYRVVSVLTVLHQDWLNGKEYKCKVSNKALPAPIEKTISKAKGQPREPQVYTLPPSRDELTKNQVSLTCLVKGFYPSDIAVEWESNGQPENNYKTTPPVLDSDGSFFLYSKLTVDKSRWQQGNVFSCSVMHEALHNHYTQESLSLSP
light: B1 light
As for B5, the entries for the “Binding to human FcgRs (parent B3 = 100)” value in test [1], in test [2] and in test [3] were 176 parent B3 = 100, 125 parent B3 = 100 and 283 parent B3 = 100, respectively.

B6: GpH7-B3 variant K334Y/GpL16-k0 (antibody, human IgG1, kappa)
heavy: not shown
light: B1 light
For the molecule B6, the entries for the “Binding to human FcgRs (parent B3 = 100)” value in test [1], in test [2] and in test [3] were 157 parent B3 = 100, 131 parent B3 = 100 and 160 parent B3 = 100, respectively.

B7: GpH7-B3 variant S239V/GpL16-k0 (antibody, human IgG1, kappa)
heavy: not shown
light: B1 light
As to B7, the “Binding to human FcgRs (parent B3 = 100)” value in test [1] is 79 parent B3 = 100; in test [2] it was 71 parent B3 = 100; in test [3], 107 parent B3 = 100.

B8: GpH7-B3 variant P331E/GpL16-k0 (antibody, human IgG1, kappa)
heavy: not shown
light: B1 light
Regarding B8, the “Binding to human FcgRs (parent B3 = 100)” value in test [1] was determined as 96 parent B3 = 100; in test [2] it was 67 parent B3 = 100; in test [3], 100 parent B3 = 100.

B9: GpH7-B3 variant P238Q/GpL16-k0 (antibody, human IgG1, kappa)
heavy: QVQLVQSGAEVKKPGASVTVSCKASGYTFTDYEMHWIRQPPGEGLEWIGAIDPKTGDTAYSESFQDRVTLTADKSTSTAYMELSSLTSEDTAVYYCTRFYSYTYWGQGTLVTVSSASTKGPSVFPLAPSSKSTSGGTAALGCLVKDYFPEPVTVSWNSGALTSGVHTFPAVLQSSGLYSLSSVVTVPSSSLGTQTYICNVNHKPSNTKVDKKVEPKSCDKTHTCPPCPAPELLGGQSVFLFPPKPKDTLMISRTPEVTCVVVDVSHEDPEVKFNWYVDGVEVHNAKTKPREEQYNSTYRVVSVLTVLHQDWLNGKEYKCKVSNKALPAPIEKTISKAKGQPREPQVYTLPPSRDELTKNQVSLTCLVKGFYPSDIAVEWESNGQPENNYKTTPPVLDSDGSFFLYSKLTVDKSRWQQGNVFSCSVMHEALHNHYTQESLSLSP
light: B1 light
Take B9: the “Binding to human FcgRs (parent B3 = 100)” value was 19 parent B3 = 100 in test [1], 4 parent B3 = 100 in test [2] and 43 parent B3 = 100 in test [3].

B10: GpH7-B3 variant L328T/GpL16-k0 (antibody, human IgG1, kappa)
heavy: not shown
light: B1 light
For B10, the results for the “Binding to human FcgRs (parent B3 = 100)” value in test [1], in test [2] and in test [3] were 156 parent B3 = 100, 135 parent B3 = 100 and 179 parent B3 = 100, respectively.

B11: GpH7-B3 variant K334I/GpL16-k0 (antibody, human IgG1, kappa)
heavy: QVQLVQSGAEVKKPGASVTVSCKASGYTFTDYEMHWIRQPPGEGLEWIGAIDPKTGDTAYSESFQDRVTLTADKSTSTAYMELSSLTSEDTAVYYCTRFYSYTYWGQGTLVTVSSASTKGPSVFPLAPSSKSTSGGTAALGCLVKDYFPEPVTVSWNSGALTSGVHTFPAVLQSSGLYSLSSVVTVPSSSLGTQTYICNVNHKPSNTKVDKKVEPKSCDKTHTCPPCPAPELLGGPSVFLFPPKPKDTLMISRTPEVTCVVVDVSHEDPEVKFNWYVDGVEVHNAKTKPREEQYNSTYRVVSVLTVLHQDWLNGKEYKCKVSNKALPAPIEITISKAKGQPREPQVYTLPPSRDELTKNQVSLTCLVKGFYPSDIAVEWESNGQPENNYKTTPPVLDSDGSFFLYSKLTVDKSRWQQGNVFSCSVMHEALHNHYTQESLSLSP
light: B1 light
In the case of B11, the figures for the “Binding to human FcgRs (parent B3 = 100)” value in test [1], in test [2] and in test [3] were 169 parent B3 = 100, 137 parent B3 = 100 and 174 parent B3 = 100, respectively.

B12: GpH7-B3 variant K326T/GpL16-k0 (antibody, human IgG1, kappa)
heavy: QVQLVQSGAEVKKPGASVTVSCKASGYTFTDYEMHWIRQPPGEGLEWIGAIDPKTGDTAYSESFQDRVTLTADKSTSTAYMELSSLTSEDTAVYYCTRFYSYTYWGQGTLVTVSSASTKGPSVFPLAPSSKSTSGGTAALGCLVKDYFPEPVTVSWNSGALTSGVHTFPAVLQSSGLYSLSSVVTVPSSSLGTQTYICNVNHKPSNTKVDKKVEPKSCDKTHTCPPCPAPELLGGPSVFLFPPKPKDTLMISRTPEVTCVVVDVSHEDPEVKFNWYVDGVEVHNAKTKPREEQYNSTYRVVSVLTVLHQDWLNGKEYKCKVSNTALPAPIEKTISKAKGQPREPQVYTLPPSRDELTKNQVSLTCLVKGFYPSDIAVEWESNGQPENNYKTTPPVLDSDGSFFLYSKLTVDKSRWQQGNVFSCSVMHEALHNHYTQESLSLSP
light: B1 light
As for B12, the entries for the “Binding to human FcgRs (parent B3 = 100)” value in test [1], in test [2] and in test [3] were 138 parent B3 = 100, 127 parent B3 = 100 and 195 parent B3 = 100, respectively.

B13: GpH7-B3 variant K334D/GpL16-k0 (antibody, human IgG1, kappa)
heavy: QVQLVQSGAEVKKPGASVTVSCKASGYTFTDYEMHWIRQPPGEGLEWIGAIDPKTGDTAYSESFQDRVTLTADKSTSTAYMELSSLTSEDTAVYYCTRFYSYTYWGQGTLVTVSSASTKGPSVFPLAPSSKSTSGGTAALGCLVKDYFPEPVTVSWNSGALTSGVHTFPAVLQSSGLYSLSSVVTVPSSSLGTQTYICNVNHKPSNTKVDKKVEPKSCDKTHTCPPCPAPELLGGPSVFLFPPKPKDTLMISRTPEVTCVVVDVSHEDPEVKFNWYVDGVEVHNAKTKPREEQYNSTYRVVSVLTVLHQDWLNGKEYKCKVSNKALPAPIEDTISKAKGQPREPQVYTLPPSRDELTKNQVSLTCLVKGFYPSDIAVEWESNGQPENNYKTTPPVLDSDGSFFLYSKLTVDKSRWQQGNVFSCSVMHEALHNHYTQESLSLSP
light: B1 light
B13: the “Binding to human FcgRs (parent B3 = 100)” value in test [1] was found to be 97 parent B3 = 100; in test [2] it was 72 parent B3 = 100; in test [3], 108 parent B3 = 100.

B14: GpH7-B3 variant K334V/GpL16-k0 (antibody, human IgG1, kappa)
heavy: not shown
light: B1 light
For the molecule B14, the “Binding to human FcgRs (parent B3 = 100)” value in test [1] was 172 parent B3 = 100; in test [2], 132 parent B3 = 100; in test [3] it was 184 parent B3 = 100.

B15: GpH7-B3 variant S298L/GpL16-k0 (antibody, human IgG1, kappa)
heavy: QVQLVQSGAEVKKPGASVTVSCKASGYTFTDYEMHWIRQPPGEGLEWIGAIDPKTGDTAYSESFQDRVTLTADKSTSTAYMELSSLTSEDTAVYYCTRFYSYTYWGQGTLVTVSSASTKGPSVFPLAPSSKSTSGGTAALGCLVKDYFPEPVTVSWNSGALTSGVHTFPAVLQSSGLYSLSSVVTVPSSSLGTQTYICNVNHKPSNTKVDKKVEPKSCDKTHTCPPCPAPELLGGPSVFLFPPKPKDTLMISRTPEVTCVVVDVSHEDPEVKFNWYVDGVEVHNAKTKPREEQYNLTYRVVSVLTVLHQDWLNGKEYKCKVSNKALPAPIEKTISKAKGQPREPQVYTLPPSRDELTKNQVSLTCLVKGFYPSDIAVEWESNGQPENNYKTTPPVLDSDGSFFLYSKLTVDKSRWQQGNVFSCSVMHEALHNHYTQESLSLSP
light: B1 light
With B15, the “Binding to human FcgRs (parent B3 = 100)” value amounted to 99 parent B3 = 100 in test [1], 71 parent B3 = 100 in test [2] and 114 parent B3 = 100 in test [3].

B16: GpH7-B3 variant S267L/GpL16-k0 (antibody, human IgG1, kappa)
heavy: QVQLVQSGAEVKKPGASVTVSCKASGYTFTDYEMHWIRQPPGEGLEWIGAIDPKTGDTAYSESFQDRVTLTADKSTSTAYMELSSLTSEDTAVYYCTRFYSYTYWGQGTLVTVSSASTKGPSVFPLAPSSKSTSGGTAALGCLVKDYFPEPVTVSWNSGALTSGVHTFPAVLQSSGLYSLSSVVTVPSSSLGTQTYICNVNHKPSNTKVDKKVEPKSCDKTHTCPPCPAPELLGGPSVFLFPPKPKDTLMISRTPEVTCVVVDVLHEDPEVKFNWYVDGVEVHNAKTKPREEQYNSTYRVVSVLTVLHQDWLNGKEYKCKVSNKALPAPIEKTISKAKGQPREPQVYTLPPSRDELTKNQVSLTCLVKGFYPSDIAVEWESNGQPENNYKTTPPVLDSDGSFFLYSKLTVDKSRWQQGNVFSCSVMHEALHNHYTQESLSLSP
light: B1 light
In the case of B16, the “Binding to human FcgRs (parent B3 = 100)” value came out at 63 parent B3 = 100 in test [1], 3 parent B3 = 100 in test [2] and 112 parent B3 = 100 in test [3].

B17: GpH7-B3 variant L234Y/GpL16-k0 (antibody, human IgG1, kappa)
heavy: not shown
light: B1 light
For the molecule B17, the “Binding to human FcgRs (parent B3 = 100)” value amounted to 38 parent B3 = 100 in test [1], 50 parent B3 = 100 in test [2] and 55 parent B3 = 100 in test [3].

B18: GpH7-B3 variant L235W/GpL16-k0 (antibody, human IgG1, kappa)
heavy: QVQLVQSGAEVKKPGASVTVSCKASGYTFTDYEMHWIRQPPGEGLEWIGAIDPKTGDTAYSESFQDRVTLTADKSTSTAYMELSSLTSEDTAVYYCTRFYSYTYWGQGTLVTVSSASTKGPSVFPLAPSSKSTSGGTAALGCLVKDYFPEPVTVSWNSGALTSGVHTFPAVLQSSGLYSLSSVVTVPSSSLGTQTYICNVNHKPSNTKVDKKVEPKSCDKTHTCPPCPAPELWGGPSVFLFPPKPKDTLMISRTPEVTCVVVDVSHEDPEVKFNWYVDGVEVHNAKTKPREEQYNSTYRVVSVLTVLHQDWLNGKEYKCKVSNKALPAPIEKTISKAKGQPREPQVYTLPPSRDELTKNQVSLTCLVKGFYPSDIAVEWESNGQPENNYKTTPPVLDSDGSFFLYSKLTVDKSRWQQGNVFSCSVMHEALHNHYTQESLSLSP
light: B1 light
On to B18, for which the “Binding to human FcgRs (parent B3 = 100)” value was found to be 136 parent B3 = 100 in test [1], 128 parent B3 = 100 in test [2] and 130 parent B3 = 100 in test [3].

B19: GpH7-B3 variant Q295L/GpL16-k0 (antibody, human IgG1, kappa)
heavy: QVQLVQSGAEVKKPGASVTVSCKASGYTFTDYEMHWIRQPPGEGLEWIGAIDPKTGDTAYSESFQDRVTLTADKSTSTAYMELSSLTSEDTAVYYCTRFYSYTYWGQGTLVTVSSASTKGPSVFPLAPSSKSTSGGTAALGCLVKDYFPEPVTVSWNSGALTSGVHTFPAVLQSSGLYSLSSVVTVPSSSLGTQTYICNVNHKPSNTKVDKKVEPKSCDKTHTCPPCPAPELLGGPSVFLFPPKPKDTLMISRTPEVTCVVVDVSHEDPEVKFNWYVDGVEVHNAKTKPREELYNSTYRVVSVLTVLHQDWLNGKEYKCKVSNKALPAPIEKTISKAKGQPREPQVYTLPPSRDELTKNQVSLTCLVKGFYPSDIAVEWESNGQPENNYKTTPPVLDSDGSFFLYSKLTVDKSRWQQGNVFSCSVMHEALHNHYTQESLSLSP
light: B1 light
On to B19, for which the “Binding to human FcgRs (parent B3 = 100)” value in test [1] was 128 parent B3 = 100; in test [2], 148 parent B3 = 100; in test [3], 156 parent B3 = 100.

B20: GpH7-B3 variant L234W/GpL16-k0 (antibody, human IgG1, kappa)
heavy: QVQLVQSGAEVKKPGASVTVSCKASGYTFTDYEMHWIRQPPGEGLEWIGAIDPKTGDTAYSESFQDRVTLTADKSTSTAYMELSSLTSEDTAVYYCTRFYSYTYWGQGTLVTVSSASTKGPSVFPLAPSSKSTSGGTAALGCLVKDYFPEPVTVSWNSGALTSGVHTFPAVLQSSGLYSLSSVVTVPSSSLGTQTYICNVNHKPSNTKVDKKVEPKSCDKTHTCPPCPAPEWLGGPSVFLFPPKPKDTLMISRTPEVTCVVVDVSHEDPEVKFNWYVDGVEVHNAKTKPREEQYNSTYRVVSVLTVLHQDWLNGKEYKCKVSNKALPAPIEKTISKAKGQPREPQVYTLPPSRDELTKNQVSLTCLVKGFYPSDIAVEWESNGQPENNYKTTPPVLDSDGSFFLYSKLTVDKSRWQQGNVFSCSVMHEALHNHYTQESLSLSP
light: B1 light
In the case of B20, the “Binding to human FcgRs (parent B3 = 100)” value in test [1] was determined as 64 parent B3 = 100; in test [2], 63 parent B3 = 100; in test [3], 90 parent B3 = 100.

B21: GpH7-B3 variant K334M/GpL16-k0 (antibody, human IgG1, kappa)
heavy: not shown
light: B1 light
Regarding B21, the “Binding to human FcgRs (parent B3 = 100)” value came to 151 parent B3 = 100 in test [1], 127 parent B3 = 100 in test [2] and 148 parent B3 = 100 in test [3].

B22: GpH7-B3 variant S267H/GpL16-k0 (antibody, human IgG1, kappa)
heavy: not shown
light: B1 light
As for B22, the “Binding to human FcgRs (parent B3 = 100)” value in test [1] came out at 27 parent B3 = 100; in test [2] it was 3 parent B3 = 100; in test [3] it was 42 parent B3 = 100.

B23: GpH7-B3 variant S239I/GpL16-k0 (antibody, human IgG1, kappa)
heavy: not shown
light: B1 light
With B23, the figures for the “Binding to human FcgRs (parent B3 = 100)” value in test [1], in test [2] and in test [3] were 82 parent B3 = 100, 75 parent B3 = 100 and 108 parent B3 = 100, respectively.

The values are drawn from patent publication US20200317768A1 (published 2020).
